How the values were obtained:
Assay in all cases: Kinase Profiling Assay
Format in all cases: biochemical
Settings in all cases: 100 μM
PDGFRα (V561D) (h) = target: T1, PDGFRα (V561D) (h) (Homo sapiens, UniProt P16234, V561D)
T1 construct: purchased Millipore
Procedure, shortened: (§1)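 Duplicate wells; [radiolabeled] ATP phosphate onto cationic substrate; filter capture (negatively charged membrane); scintillation count; % of 100% activity control. Selectivity screen of MK2 peptide inhibitors, 266 human kinases.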

MST1 (h) = target: T2, MST1 (h) (Homo sapiens, UniProt Q13043)
T2 construct: purchased Millipore
T2 sequence (Q13043 1-487): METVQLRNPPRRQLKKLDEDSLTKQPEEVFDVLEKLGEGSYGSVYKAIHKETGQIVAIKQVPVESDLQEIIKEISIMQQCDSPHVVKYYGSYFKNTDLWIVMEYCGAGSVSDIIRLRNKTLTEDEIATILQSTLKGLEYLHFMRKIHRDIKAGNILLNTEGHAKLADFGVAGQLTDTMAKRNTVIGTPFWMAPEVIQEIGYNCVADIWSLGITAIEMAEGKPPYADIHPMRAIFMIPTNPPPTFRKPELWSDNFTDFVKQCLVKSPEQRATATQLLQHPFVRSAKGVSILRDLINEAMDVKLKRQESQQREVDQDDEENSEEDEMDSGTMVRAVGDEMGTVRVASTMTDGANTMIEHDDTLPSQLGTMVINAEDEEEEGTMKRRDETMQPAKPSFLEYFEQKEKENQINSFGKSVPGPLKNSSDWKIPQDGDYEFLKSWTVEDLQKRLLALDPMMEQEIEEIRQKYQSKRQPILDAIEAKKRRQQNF
Procedure, shortened: as §1

FGFR4 (h) = FGFR4 (h) (Homo sapiens, UniProt P22455)
Procedure, shortened: as §1

Rse (h) = target: T3, Rse (h) (Homo sapiens, UniProt Q06418)
T3 sequence (Q06418 41-890): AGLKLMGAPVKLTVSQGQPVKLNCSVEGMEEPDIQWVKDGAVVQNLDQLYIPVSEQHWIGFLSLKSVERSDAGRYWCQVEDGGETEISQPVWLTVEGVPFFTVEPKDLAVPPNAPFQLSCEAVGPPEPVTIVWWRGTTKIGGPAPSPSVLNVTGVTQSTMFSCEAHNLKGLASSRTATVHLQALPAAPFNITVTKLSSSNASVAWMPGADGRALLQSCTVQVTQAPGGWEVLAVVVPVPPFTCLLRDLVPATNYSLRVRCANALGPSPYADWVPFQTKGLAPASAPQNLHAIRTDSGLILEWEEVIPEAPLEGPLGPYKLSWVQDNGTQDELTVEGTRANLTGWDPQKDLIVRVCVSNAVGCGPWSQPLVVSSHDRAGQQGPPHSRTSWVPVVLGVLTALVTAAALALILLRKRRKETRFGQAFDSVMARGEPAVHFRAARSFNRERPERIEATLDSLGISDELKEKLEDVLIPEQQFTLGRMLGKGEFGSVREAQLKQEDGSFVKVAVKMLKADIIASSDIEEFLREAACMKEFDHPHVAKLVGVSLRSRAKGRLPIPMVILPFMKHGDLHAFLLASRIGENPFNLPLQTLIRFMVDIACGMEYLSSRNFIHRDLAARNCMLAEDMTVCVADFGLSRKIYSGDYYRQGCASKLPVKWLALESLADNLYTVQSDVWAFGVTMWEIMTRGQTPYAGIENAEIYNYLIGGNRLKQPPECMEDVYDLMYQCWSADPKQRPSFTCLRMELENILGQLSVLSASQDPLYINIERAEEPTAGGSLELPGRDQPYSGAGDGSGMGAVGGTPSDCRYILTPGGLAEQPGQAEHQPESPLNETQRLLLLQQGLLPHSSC
Procedure, shortened: as §1

EphA1 (h) = target: T4, EphA1 (h) (Homo sapiens, UniProt P21709)
T4 construct: purchased Millipore
T4 sequence (P21709 26-976): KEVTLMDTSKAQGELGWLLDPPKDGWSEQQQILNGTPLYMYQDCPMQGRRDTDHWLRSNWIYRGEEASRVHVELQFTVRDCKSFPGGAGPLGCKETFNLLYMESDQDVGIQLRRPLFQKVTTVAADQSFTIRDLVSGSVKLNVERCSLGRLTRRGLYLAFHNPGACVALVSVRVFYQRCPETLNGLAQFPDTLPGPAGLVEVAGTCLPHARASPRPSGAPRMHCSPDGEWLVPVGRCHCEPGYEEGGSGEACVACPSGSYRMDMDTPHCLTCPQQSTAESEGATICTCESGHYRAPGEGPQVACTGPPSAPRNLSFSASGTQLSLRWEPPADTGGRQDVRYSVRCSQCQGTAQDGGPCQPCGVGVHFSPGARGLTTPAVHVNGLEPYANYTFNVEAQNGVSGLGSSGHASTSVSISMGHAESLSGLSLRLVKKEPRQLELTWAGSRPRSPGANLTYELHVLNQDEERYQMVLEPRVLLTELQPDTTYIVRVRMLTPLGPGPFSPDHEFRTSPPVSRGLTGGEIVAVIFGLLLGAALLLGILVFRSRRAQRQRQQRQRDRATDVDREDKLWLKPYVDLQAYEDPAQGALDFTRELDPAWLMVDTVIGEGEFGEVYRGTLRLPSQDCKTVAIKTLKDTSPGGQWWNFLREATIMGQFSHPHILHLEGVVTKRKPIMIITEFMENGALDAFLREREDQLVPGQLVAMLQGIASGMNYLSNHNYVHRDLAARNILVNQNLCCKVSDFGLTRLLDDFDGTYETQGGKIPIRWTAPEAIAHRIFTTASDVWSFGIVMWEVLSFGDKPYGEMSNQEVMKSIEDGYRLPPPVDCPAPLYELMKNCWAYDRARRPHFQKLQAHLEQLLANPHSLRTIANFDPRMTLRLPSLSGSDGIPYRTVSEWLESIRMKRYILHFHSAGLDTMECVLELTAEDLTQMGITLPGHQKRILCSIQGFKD
Procedure, shortened: as §1

STK33 (h) = STK33 (h) (Homo sapiens, UniProt Q9BYT3)
Procedure, shortened: as §1

EGFR (h) = target: T5, EGFR (h) (Homo sapiens, UniProt P00533)
T5 construct: purchased Millipore
Procedure, shortened: as §1

PASK (h) = target: T6, PASK (h) (Homo sapiens, UniProt Q96RG2)
T6 construct: purchased Millipore
Procedure, shortened: as §1

SIK (h) = SIK (h) (Homo sapiens, UniProt P57059)
Procedure, shortened: as §1

T1 sequence (P16234 24-1089 V561D): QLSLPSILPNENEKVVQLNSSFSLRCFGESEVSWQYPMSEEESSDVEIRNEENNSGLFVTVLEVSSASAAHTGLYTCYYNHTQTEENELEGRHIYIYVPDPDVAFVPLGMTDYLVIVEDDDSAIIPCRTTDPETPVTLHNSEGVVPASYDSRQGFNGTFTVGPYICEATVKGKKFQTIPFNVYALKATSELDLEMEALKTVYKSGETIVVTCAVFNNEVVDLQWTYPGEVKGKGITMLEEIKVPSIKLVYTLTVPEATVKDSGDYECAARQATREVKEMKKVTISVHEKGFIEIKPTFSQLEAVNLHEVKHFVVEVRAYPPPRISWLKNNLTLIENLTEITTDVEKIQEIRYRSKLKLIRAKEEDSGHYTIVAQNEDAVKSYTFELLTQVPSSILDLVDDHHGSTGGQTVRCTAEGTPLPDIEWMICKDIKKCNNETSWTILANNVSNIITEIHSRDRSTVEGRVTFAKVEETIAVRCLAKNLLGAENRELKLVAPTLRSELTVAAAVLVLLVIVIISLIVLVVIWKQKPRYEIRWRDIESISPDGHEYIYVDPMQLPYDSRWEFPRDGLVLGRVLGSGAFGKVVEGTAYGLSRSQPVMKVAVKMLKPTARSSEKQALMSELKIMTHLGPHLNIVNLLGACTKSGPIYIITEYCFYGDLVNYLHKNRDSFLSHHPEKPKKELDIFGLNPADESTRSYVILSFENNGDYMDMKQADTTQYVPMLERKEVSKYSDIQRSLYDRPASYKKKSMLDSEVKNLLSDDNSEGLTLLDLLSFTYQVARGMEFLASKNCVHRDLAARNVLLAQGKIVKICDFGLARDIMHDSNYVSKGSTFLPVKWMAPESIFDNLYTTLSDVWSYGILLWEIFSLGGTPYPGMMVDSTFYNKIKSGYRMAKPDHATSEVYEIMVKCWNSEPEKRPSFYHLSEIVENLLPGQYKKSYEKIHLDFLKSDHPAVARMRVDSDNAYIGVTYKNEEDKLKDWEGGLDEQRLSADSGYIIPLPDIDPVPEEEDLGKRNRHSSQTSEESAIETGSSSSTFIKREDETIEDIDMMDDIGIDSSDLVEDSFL
T6 sequence (Q96RG2 whole entry): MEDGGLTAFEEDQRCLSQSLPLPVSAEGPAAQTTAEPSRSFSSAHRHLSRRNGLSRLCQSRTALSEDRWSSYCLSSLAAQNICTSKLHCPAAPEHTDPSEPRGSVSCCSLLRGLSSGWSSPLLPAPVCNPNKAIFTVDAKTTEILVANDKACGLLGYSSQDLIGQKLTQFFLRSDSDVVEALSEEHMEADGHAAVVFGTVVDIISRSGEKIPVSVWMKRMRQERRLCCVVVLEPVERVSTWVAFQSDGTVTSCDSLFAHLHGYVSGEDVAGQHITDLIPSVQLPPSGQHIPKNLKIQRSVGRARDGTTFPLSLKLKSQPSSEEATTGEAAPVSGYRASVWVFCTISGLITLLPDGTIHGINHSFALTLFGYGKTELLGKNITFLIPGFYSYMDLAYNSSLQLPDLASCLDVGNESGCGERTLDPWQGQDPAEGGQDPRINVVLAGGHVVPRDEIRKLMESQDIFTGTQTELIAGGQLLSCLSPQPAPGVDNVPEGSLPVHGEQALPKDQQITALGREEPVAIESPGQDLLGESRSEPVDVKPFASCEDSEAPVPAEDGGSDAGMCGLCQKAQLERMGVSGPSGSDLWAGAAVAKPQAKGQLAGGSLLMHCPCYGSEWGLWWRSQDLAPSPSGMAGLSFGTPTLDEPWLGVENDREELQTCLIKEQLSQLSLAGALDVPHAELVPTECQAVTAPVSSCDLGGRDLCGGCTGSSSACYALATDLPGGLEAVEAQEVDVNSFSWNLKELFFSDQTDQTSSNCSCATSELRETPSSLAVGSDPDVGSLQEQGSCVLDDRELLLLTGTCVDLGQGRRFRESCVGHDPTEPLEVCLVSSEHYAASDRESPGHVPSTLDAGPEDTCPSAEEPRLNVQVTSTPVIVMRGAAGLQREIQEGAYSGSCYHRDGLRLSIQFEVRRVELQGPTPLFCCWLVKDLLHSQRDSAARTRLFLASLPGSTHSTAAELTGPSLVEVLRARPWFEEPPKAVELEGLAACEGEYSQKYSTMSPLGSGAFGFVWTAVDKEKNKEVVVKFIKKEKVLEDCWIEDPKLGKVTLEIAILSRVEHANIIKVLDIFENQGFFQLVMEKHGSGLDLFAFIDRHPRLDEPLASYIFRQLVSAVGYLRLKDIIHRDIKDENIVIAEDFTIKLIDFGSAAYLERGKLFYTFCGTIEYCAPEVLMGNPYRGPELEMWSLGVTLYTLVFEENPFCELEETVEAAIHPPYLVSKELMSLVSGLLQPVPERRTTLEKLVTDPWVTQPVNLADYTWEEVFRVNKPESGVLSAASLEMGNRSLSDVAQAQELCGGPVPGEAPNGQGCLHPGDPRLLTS
SIK (h), sequence (P57059 whole entry): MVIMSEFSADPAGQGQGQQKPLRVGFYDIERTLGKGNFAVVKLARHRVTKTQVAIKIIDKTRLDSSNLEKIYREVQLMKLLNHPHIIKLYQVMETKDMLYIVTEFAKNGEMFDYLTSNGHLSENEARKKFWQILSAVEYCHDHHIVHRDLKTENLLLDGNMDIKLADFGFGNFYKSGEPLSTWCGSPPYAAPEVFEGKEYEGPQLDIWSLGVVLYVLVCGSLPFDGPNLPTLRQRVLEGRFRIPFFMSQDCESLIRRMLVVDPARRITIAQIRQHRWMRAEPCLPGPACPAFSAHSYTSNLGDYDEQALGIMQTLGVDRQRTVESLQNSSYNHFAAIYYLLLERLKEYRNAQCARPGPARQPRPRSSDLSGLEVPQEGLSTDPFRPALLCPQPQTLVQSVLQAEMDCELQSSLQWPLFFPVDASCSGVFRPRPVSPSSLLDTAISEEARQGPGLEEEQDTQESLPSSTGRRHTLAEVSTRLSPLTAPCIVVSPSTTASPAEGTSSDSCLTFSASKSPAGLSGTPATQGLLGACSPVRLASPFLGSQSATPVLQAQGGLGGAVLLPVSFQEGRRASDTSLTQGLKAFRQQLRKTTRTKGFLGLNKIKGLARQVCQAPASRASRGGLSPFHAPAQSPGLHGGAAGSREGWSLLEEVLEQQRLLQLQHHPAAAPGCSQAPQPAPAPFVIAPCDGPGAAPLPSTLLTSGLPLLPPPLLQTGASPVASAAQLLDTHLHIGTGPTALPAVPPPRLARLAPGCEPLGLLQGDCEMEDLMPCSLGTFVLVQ
STK33 (h), sequence (Q9BYT3 whole entry): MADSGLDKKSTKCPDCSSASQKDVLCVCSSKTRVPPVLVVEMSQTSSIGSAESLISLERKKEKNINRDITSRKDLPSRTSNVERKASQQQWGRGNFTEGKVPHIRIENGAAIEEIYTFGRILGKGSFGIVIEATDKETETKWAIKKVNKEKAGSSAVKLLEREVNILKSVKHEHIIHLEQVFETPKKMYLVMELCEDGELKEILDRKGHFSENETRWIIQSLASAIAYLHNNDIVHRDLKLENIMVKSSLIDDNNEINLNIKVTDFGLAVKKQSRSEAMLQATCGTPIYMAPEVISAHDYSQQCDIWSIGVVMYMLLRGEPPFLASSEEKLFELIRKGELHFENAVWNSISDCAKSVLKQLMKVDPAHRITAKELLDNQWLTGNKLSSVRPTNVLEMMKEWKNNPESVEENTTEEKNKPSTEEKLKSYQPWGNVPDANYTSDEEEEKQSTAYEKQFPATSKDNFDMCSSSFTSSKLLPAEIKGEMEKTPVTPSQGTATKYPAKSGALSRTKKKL

With FAKLAARLYRKALARQLGVAA [MMI-0300] as the sequence, how does the “% activity” value (PDGFRα (V561D) (h)) read?
The value was 82%.

What about the “% activity” value (MST1 (h)) of the same sequence?
Its value is 14%.

What about the “% activity” value (FGFR4 (h)) of the same sequence?
The value was 28%.

What about the “% activity” value (Rse (h)) of the same sequence?
Its value is 88%.

And the “% activity” value (EphA1 (h))?
The value was 73%.

What about the “% activity” value (STK33 (h)) of the same sequence?
Its value is 45%.

What about the “% activity” value (EGFR (h)) of the same sequence?
Its value is 21%.

What about the “% activity” value (PASK (h)) of the same sequence?
The value was 29%.

And the “% activity” value (SIK (h))?
Its value is 66%.

With “HRRIKAWLKKIKALARQLGVAA (Mammalian) [MMI-0500]” as the sequence, how does the “% activity” value (PDGFRα (V561D) (h)) read?
The value was 146%.

What about the “% activity” value (MST1 (h)) of the same sequence?
The value was 3%.

And the “% activity” value (FGFR4 (h))?
The value was 3%.

What about the “% activity” value (Rse (h)) of the same sequence?
The value was 63%.

What about the “% activity” value (EphA1 (h)) of the same sequence?
Its value is 40%.

And the “% activity” value (STK33 (h))?
Its value is 16%.

What about the “% activity” value (EGFR (h)) of the same sequence?
Its value is −1%.

And the “% activity” value (PASK (h))?
Its value is 9%.

And the “% activity” value (SIK (h))?
The value was 40%.

What does the source list for KAFAKLAARLYRKALARQLGVAA [MMI-0400]?
% activity (PDGFRα (V561D) (h)): 100%; % activity (MST1 (h)): 6%; % activity (FGFR4 (h)): 19%; % activity (Rse (h)): 89%; % activity (EphA1 (h)): 61%; % activity (STK33 (h)): 52%; % activity (EGFR (h)): 16%; % activity (PASK (h)): 28%; % activity (SIK (h)): 68%

For “YARAAARQARAKALNRQLGVA (Mammalian) [MMI-0200]”, which “% activity” value (MST1 (h)) is on record?
Its value is 72%.

And the “% activity” value (FGFR4 (h))?
Its value is 75%.

And the “% activity” value (Rse (h))?
The value was 88%.

And the “% activity” value (STK33 (h))?
Its value is 98%.

What about the “% activity” value (EGFR (h)) of the same sequence?
The value was 83%.

And the “% activity” value (PASK (h))?
Its value is 60%.
